In patent US20190345534:
Read-outs that look alike come from different tables or passages of the source.

B1: murine Granzyme B (recombinant, Peprotech) (protein)
chain: IIGGHEVKPHSRPYMALLSIKDQQPEAICGFLIREDFVLTAAHCEGSIINVTLGAHNIKEQEKTQQVIPMVKCIPHPDYNPKTFSNDIMLLKLKSKAKRTRAVRPLNLPRRNVNVKPGDVCYVAGWGRMAPMGKYSNTLQEVELTVQKDRECESYFKNRYNKTNQICAGDPKTKRASFRGDSGGPLVCKKVAAGIVSYGYKDGSPPRAFTKVSSFLSWIKKTMKSS
B2: mouse plasmin (HaemTech) (protein)
chain: VYLSECKTGIGNGYRGTMSRTKSGVACQKWGATFPHVPNYSPSTHPNEGLEENYCRNPDNDEQGPWCYTTDPDKRYDYCNIPECEEECMYCSGEKYEGKISKTMSGLDCQAWDSQSPHAHGYIPAKFPSKNLKMNYCRNPDGEPRPWCFTTDPTKRWEYCDIPRCTTPPPPPSPTYQCLKGRGENYRGTVSVTVSGKTCQRWSEQTPHRHNRTPENFPCKNLEENYCRNPDGETAPWCYTTDSQLRWEYCEIPSCESSASPDQSDSSVPPEEQTPVVQECYQSDGQSYRGTSSTTITGKKCQSWAAMFPHRHSKTPENFPDAGLEMNYCRNPDGDKGPWCYTTDPSVRWEYCNLKRCSETGGSVVELPTVSQEPSGPSDSETDCMYGNGKDYRGKTAVTAAGTPCQGWAAQEPHRHSIFTPQTNPRAGLEKNYCRNPDGDVNGPWCYTTNPRKLYDYCDIPLCASASSFECGKPQVEPKKCPGRVVGGCVANPHSWPWQISLRTRFTGQHFCGGTLIAPEWVLTAAHCLEKSSRPEFYKVILGAHEEYIRGLDVQEISVAKLILEPNNRDIALLKLSRPATITDKVIPACLPSPNYMVADRTICYITGWGETQGTFGAGRLKEAQLPVIENKVCNRVEYLNNRVKSTELCAGQLAGGVDSCQGDSGGPLVCFEKDKYILQGVTSWGLGCARPNKPGVYVRVSRFVDWIEREMRNN
B3: Clr (Sigma) (enzyme, UniProt P00736 18-705, looked up, species assumed)
Complement C1r subcomponent: SIPIPQKLFGEVTSPLFPKPYPNNFETTTVITVPTGYRVKLVFQQFDLEPSEGCFYDYVKISADKKSLGRFCGQLGSPLGNPPGKKEFMSQGNKMLLTFHTDFSNEENGTIMFYKGFLAYYQAVDLDECASRSKSGEEDPQPQCQHLCHNYVGGYFCSCRPGYELQEDTHSCQAECSSELYTEASGYISSLEYPRSYPPDLRCNYSIRVERGLTLHLKFLEPFDIDDHQQVHCPYDQLQIYANGKNIGEFCGKQRPPDLDTSSNAVDLLFFTDESGDSRGWKLRYTTEIIKCPQPKTLDEFTIIQNLQPQYQFRDYFIATCKQGYQLIEGNQVLHSFTAVCQDDGTWHRAMPRCKIKDCGQPRNLPNGDFRYTTTMGVNTYKARIQYYCHEPYYKMQTRAGSRESEQGVYTCTAQGIWKNEQKGEKIPRCLPVCGKPVNPVEQRQRIIGGQKAKMGNFPWQVFTNIHGRGGGALLGDRWILTAAHTLYPKEHEAQSNASLDVFLGHTNVEELMKLGNHPIRRVSVHPDYRQDESYNFEGDIALLELENSVTLGPNLLPICLPDNDTFYDLGLMGYVSGFGVMEEKIAHDLRFVRLPVANPQACENWLRGKNRMDVFSQNMFCAGHPSLKQDACQGDSGGVFAVRDPNTDRWVATGIVSWGIGCSRGYGFYTKVLNYVDWIKKEMEEED
B4: Cls (Sigma) (enzyme, UniProt P09871 16-688, looked up, species assumed)
Complement C1s subcomponent: EPTMYGEILSPNYPQAYPSEVEKSWDIEVPEGYGIHLYFTHLDIELSENCAYDSVQIISGDTEEGRLCGQRSSNNPHSPIVEEFQVPYNKLQVIFKSDFSNEERFTGFAAYYVATDINECTDFVDVPCSHFCNNFIGGYFCSCPPEYFLHDDMKNCGVNCSGDVFTALIGEIASPNYPKPYPENSRCEYQIRLEKGFQVVVTLRREDFDVEAADSAGNCLDSLVFVAGDRQFGPYCGHGFPGPLNIETKSNALDIIFQTDLTGQKKGWKLRYHGDPMPCPKEDTPNSVWEPAKAKYVFRDVVQITCLDGFEVVEGRVGATSFYSTCQSNGKWSNSKLKCQPVDCGIPESIENGKVEDPESTLFGSVIRYTCEEPYYYMENGGGGEYHCAGNGSWVNEVLGPELPKCVPVCGVPREPFEEKQRIIGGSDADIKNFPWQVFFDNPWAGGALINEYWVLTAAHVVEGNREPTMYVGSTSVQTSRLAKSKMLTPEHVFIHPGWKLLEVPEGRTNFDNDIALVRLKDPVKMGPTVSPICLPGTSSDYNLMDGDLGLISGWGRTEKRDRAVRLKAARLPVAPLRKCKEVKVEKPTADAEAYVFTPNMICAGGEKGMDSCKGDSGGAFAVQDPNDKTKFYAAGLVSWGPQCGTYGLYTRVKNYVDWIMKTMQENSTPRED

Legend:
[1] = molecular target: T1, GzmB peptide substrate AIEFDSGc on PEG-coated iron oxide nanoparticles (GzmB-sensing synthetic biomarker)
T1 chain: AIEFDSGC

[2] = test system: GzmB peptide substrate AIEFDSGc on PEG-coated iron oxide nanoparticles (GzmB-sensing synthetic biomarker); remark: listed apart in the source

Protein	fluorescent intensity (in vitro protease cleavage assay) [1]	kcat/KM [1]	rate of cleavage (initial cleavage velocity, fluorescence) [1]	fluorescent intensity (in vitro protease cleavage assay) [2]
B1	Increases in fluorescent intensity were observed only in samples containing recombinant GzmB	Fitted kcat/KM was 1.09×10^4 M^-1s^-1	the substrate that produced the highest rate of cleavage by recombinant GzmB	
B2	Increases in fluorescent intensity were observed only in samples containing recombinant GzmB			
B3				Increases in fluorescent intensity were observed only in samples containing recombinant GzmB
B4				Increases in fluorescent intensity were observed only in samples containing recombinant GzmB
